Here are results for one sequence from PMC3742456.

The target in this data set is c-kit receptor (CD117), expressed on BJAB c-kit cells (Mus musculus) (UniProt P05532). As to the kind of experiment: flow cytometry (cell titration, 0-100 nM). As to conditions: apparent Kd on BJAB c-kit cells, background subtracted; Aptamer folded in SELEX buffer (DPBS with Ca/Mg, 5 mM MgCl2, 0.45% glucose, tRNA), 95 C then …; binding in DPBS with Ca/Mg + 0.1% BSA, 1 h on ice; FAM.
Sequence of UniProt P05532 (P05532 25-979): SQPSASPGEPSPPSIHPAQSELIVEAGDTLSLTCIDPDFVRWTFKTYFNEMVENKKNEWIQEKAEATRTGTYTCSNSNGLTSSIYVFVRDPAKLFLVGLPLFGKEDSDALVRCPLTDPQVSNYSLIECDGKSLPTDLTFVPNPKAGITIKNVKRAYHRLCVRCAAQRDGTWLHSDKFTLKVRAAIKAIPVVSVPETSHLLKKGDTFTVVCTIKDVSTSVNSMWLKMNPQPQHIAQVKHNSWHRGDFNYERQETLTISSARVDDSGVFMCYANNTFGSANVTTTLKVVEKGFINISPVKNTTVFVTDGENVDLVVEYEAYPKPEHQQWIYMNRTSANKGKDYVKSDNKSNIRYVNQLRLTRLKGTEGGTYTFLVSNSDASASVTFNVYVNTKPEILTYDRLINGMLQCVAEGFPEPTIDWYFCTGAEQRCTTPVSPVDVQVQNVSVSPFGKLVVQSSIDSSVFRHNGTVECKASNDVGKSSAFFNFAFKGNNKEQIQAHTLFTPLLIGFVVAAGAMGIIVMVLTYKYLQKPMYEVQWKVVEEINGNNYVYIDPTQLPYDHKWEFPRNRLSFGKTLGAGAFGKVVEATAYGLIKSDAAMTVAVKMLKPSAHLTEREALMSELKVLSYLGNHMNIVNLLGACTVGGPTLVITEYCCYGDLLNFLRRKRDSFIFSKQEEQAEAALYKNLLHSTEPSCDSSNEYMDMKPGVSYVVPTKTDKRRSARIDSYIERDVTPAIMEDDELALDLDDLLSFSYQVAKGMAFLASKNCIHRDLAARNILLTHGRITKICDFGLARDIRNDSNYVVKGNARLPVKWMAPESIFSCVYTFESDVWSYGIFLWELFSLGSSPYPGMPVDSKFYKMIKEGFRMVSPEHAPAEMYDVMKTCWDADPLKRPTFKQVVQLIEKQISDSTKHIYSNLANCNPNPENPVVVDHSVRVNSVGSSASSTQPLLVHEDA

As to “AGCAGCACAGAGGTCAGATGGCTCAACGCGGGACGGCTCTCCCATTGACCCTATGCGTGCTACCGTGAA [Kit-129]”, the Kd was determined as 12.2 nM.
